Assay results reported in paper PMC7899134 (Cell, 2021).

T1: IL-23 (IL-23p19/p40), crystallography construct (human, UniProt Q9NPF7 20-189; P29460 23-328)
T1 sequence (looked up) 1: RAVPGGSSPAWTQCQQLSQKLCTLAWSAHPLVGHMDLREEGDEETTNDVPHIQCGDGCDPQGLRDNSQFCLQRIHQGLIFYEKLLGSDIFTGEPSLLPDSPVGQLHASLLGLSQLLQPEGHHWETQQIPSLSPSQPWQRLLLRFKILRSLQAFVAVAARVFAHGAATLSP
T1 sequence (looked up) 2: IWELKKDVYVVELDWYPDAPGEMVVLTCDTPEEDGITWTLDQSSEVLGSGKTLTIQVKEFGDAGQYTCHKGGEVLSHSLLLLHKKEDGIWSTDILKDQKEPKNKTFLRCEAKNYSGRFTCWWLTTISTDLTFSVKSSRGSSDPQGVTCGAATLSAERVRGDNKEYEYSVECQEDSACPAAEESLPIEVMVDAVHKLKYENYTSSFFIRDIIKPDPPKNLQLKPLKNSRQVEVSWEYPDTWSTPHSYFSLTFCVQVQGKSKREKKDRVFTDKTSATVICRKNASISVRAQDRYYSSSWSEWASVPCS

T2: human IL-23R (1–309) (human, UniProt Q5VWK5-1 24-309)
T2 sequence (looked up): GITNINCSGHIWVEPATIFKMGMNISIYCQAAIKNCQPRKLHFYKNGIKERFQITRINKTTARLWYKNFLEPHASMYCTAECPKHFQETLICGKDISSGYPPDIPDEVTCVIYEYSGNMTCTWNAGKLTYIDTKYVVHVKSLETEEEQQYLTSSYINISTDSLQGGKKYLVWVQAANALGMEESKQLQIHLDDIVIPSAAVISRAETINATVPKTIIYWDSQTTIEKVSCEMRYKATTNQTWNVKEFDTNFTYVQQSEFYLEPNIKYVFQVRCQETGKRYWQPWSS

B1: human IL-23R (1–315), crystallography construct (domain or fragment, UniProt Q5VWK5-1 24-315, looked up)
chain: GITNINCSGHIWVEPATIFKMGMNISIYCQAAIKNCQPRKLHFYKNGIKERFQITRINKTTARLWYKNFLEPHASMYCTAECPKHFQETLICGKDISSGYPPDIPDEVTCVIYEYSGNMTCTWNAGKLTYIDTKYVVHVKSLETEEEQQYLTSSYINISTDSLQGGKKYLVWVQAANALGMEESKQLQIHLDDIVIPSAAVISRAETINATVPKTIIYWDSQTTIEKVSCEMRYKATTNQTWNVKEFDTNFTYVQQSEFYLEPNIKYVFQVRCQETGKRYWQPWSSLFFHKT
B2: human IL-23p19 (20-189), crystallography construct (natural protein, UniProt Q9NPF7 20-189, looked up)
chain: T1 sequence (looked up) 1
B3: IL-23 (IL-23p19 and p40), biotinylated, SPR construct (complex)
chain 1: PAWTQCQQLSQKLCTLAWSAHPLVGHMDLREEGDEETTNDVPHIQCGDGCDPQGLRDNSQFCLQRIHQGLIFYEKLLGSDIFTGEPSLLPDSPVGQLHASLLGLSQLLQPEGHHWETQQIPSLSPSQPWQRLLLRFKILRSLQAFVAVAARVFAHGAATLSP
chain 2: T1 sequence (looked up) 2
modifications: biotin on the AviTag (BirA ligase)
B4: human IL-23p19 (28–189), T. ni expressed (natural protein, UniProt Q9NPF7 28-189, looked up)
chain: B3 chain 1
B5: human p40 (23–328) with BirA substrate peptide, T. ni expressed (natural protein, UniProt P29460 23-328, looked up)
chain: T1 sequence (looked up) 2
B6: IL-23 (IL-23p19 28–189 / p40 23–328 with BirA substrate peptide), T. ni expressed (complex, human)
chain 1: B3 chain 1
chain 2: T1 sequence (looked up) 2
modifications: biotinylated in vitro for the yeast staining
B7: human p40 (23-328), crystallography construct (natural protein)
chain: T1 sequence (looked up) 2
B8: human p40 (23–328) alone, biotinylated, SPR construct (natural protein, UniProt P29460 23-328, looked up)
chain: T1 sequence (looked up) 2
modifications: biotin on the AviTag (BirA ligase)

Assays:
[1] = molecular target: T1, IL-23 (IL-23p19/p40), crystallography …; assay: crystal structure
[2] = molecular target: B7; assay: crystal structure
[3] = molecular target: B1; assay: crystal structure
[4] = molecular target: T3, human IL-12Rβ1 D1–D2 (25–239) (human, UniProt P42701 25-239); assay: SPR
human IL-23R (1–309) = molecular target: T2, human IL-23R (1–309); assay: cryo-EM structure
[5] = molecular target: affi-IL-12Rβ1 D1–D5 (25–542) Tyr109Ser Gln132Leu (human, UniProt P42701 25-542, Tyr109Ser | Gln132Leu); assay: cryo-EM structure
[6] = molecular target: T3, human IL-12Rβ1 D1–D2 (25–239); assay: crystal structure
[7] = molecular target: affi-IL-12Rβ1 D1–D2 (25–239) Tyr109Ser Gln132Leu (human, UniProt P42701 25-239, Tyr109Ser | Gln132Leu); assay: SPR

Question: Does B1 bind [1]?
Answer: binds

Question: Does B1 bind [2]?
Answer: binds

Question: Does B2 bind [3]?
Answer: binds

Question: Does B3 bind [4]?
Answer: binds

Question: Does B4 bind (human IL-23R (1–309))?
Answer: binds

Question: Does B5 bind [5]?
Answer: binds

Question: Does B6 bind [5]?
Answer: binds

Question: Does B7 bind [6]?
Answer: binds

Question: Does B8 bind [7]?
Answer: binds

Question: Does B8 bind [4]?
Answer: binds
